T1: alpha subunit of the human FcεRI receptor expressed on cells (human, UniProt P12319 26-257)
T1 construct: whole, on cells; on rat basophil RBL-48 cells in the histamine release assay; also called CHO FcεRI+ cells; cell surface expressed FcεRI
T1 sequence (looked up): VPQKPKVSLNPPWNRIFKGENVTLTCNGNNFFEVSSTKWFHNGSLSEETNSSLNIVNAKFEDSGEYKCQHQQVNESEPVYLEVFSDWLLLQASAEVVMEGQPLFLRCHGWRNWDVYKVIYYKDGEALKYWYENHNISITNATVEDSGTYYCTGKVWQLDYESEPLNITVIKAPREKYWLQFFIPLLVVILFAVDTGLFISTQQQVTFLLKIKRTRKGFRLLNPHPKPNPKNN

T2: extracellular domain of the alpha subunit of the human FcεRI (aa 1-176), produced in baculovirus infected … (human, UniProt P12319 26-201, N-linked carbohydrate (NAG on Asn21 seen in the crystal); derivatised with PDEA for thiol coupling to the chip in the biosensor assay)
T2 construct: range 1-176; Residues 1-176 are probably counted without the signal peptide; also called FcεRIα; soluble FcεRI
T2 sequence (looked up): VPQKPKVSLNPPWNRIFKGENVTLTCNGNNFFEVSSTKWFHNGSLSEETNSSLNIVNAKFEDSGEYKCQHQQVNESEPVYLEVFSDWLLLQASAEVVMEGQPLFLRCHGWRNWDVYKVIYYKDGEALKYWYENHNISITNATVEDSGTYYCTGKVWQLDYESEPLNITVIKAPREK

B1: IGE123 (peptide)
peptide: VKCPSLCYVGGKALCPDVCYV-NH2
modifications: disulfide (positions not given here); also: oxidized, disulfide-bonded Cys, pairing not given here
B2: IGE124 (peptide)
peptide: VPCPELCYVGGKALCPDVCYV-NH2
modifications: disulfide (positions not given here); also: oxidized, disulfide-bonded Cys, pairing not given here
B3: IGE121 (peptide)
peptide: VVCPNMCYVGGKALCPDVCYV-NH2
modifications: disulfide (positions not given here); also: oxidized, disulfide-bonded Cys, pairing not given here
B4: IGE083 (peptide)
peptide: ALCPAVCYVGGKALCPDVCYV-NH2
modifications: disulfide 7-15, 3-19; N-terminus assumed
SMILES: CC(C)C[C@H](NC(=O)[C@H](C)N)C(=O)N[C@H]1CSSC[C@@H](C(=O)N[C@@H](Cc2ccc(O)cc2)C(=O)N[C@H](C(N)=O)C(C)C)NC(=O)[C@H](C(C)C)NC(=O)[C@H](CC(=O)O)NC(=O)[C@@H]2CCCN2C(=O)[C@@H]2CSSC[C@H](NC(=O)[C@H](C(C)C)NC(=O)[C@H](C)NC(=O)[C@@H]3CCCN3C1=O)C(=O)N[C@@H](Cc1ccc(O)cc1)C(=O)N[C@@H](C(C)C)C(=O)NCC(=O)NCC(=O)N[C@@H](CCCCN)C(=O)N[C@@H](C)C(=O)N[C@@H](CC(C)C)C(=O)N2
notes: single chain dimer form of IGE089 with Ala17Asp
B5: IGE120 (peptide)
peptide: IVCPRLCYVGGKALCPDVCYV-NH2
modifications: disulfide (positions not given here); also: oxidized, disulfide-bonded Cys, pairing not given here
B6: IGE127 (peptide)
peptide: IVCARLCYVGGKALCPDVCYV-NH2
modifications: disulfide (positions not given here); not fully specified (bridges); also: oxidized, disulfide-bonded Cys, pairing not given here
notes: P4A variant of IGE120
B7: IGE122 (peptide)
peptide: VQCPHFCYVGGKALCPDVCYV-NH2
modifications: disulfide (positions not given here); also: oxidized, disulfide-bonded Cys, pairing not given here
B8: IGE126 (peptide)
peptide: VTCPRWCYVGGKALCPDVCYV-NH2
modifications: disulfide (positions not given here); also: oxidized, disulfide-bonded Cys, pairing not given here
B9: IGE128 (peptide)
peptide: KSCPLWCYVGGKALCPDVCYV-NH2
modifications: disulfide (positions not given here); not fully specified (bridges); also: oxidized, disulfide-bonded Cys, pairing not given here
B10: IGE119 (peptide)
peptide: NGCPGWCYVGGKALCPDVCYV-NH2
modifications: disulfide 7-15, 3-19; N-terminus assumed
SMILES: CC(C)C[C@@H]1NC(=O)[C@H](C)NC(=O)[C@H](CCCCN)NC(=O)CNC(=O)CNC(=O)[C@H](C(C)C)NC(=O)[C@H](Cc2ccc(O)cc2)NC(=O)[C@@H]2CSSC[C@H](NC1=O)C(=O)N1CCC[C@H]1C(=O)N[C@@H](CC(=O)O)C(=O)N[C@@H](C(C)C)C(=O)N[C@H](C(=O)N[C@@H](Cc1ccc(O)cc1)C(=O)N[C@H](C(N)=O)C(C)C)CSSC[C@H](NC(=O)CNC(=O)[C@@H](N)CC(N)=O)C(=O)N1CCC[C@H]1C(=O)NCC(=O)N[C@@H](Cc1c[nH]c3ccccc13)C(=O)N2

Bridges are numbered along the chain shown (N, C = ends). Where no end group is shown, it is not given here.

The first assay has as its target T1, alpha subunit of the human FcεRI …. In words: inhibition of 125I-IgE binding to CHO cells expressing human FcεRI alpha. On the procedure:
To determine the ability of peptides to inhibit IgE binding to FcεRI, a cell-based binding assay was used with radiolabeled IgE. Chinese hamster ovary cells expressing the alpha subunit of the human FcεRI receptor were cultured overnight in Falcon 96 well microtiter plates at a concentration of 5 ×10^4 cells per well. The following day the cells were rinsed three times with PBS and then once with F12/DMEM. Peptide stocks were reconstituted in 100 mM Hepes buffered water, pH 7.2, at a concentration of 5 mg/mL. Working concentrations of the peptide were diluted in assay buffer (see below). 75 uL of a desired concentration of peptide was added to the top row of a separate 96 well microtiter plate and serially diluted 1:3 in 50 uL of the assay buffer (F12/DMEM, 1% BSA, 0.05% NaN_3 and 0.025 mM Hepes pH 7.2). Starting concentrations ranged from 50–500 uM. Next, 50 uL of the diluted peptide was transferred to the 96 microtiter well plate containing a monolayer of CHO FcεRI+ cells. […] Cells were
Alanine substitutions in IGE063 (SEQ ID NO:49) were used to assess sidechain contributions. The P9A (IGE070, SEQ ID NO:52) substitution had the largest impact with a >500× reduction in binding. […] Clearly the alanine substitutions at G8, P9, W10, G11 and W12 all had major impacts on binding FcεRI.
On to EIQECTEGPWGWFCVGSG (disulfide 5-14 (inferred), also called peptide of clone g8b.11) [synthetic peptide EIQECTEGPWGWFCVGSG (SEQ ID NO:8)], for which the concentration for half-maximal inhibition (IC50) was determined as 37 µM and the “fold improvement in activity over the … (SEQ ID NO:1) peptide” value is over 4 fold.

In turn, Ac-NLPRCTEGPWGWVCM (disulfide 5-14 (inferred)) [IGE063] came in with an IC50 of about 1 µM. Consider NLPRCTEGPWAWVCM (disulfide 5-14 (inferred)) [IGE074], for which the “fold reduction in binding (against IGE063)” value (“fold reduction in binding” for short) came to 30 fold. As to NLPRCTEGAWGWVCM (disulfide 5-14 (inferred), also called P9A) [IGE070], the “fold reduction in binding” value was over 500 fold. As for NLPRCTEGPWGAVCM (disulfide 5-14 (inferred), also called W12A) [IGE073], the “fold reduction in binding” value was found to be 65 fold. On the same count and under the same terms, with NLPRCTEAPWGWVCM (disulfide 5-14 (inferred), also called G8A) [IGE079] the figure was 256 fold; with Ac-NLPRCTAGPWGWVCMAAD-NH2 (disulfide 5-14 (inferred), also called E7A) [IGE059], 6 fold. As to PRCTEGPWGWVCM-NH2 (disulfide 3-12 (inferred)) [IGE069], the “fold reduction in inhibition (against IGE063)” value stood at 34 fold. Consider LPRCTEGPWGWVCM-NH2 (disulfide 4-13 (inferred)) [IGE068], for which the “fold reduction in inhibition (against IGE063)” value came out at 3 fold.

Consider Ac-NLPRCTEGPWGWVC (disulfide 5-14 (inferred)) [IGE082], for which the “fold reduction in binding” value was over 400 fold.

In the next assay the target is T2, extracellular domain of the alpha …. In words: SPR biosensor (BIAcore), peptide over immobilized FcεRIα, steady-state saturation curve, 4-parameter fit. Here is the method: *peptide is a dimer. SEQ ID NO: describes each monomer of the dimer. "ava" = amino-valeric acid Several peptides were also tested in a direct-binding assay using a surface plasmon resonance biosensor (Lofas & Johnsson, *J. Chem. Soc. Commun.* 21, 1526–1528 (1990)). FcεRIα, produced in baculovirus infected insect cells, was immobilized by the surface thiol method (BIAcore Methods Manual Supplement 5a, BIAcore, Inc., Piscataway, N.J.). Briefly, receptor was reacted with 2-(2-pyridinyldithio)ethaneamine hydrochloride (PDEA; Natake & Swaisgood, *J. Biochem.* 74, 77–86 (1973)), desalted into 10 mM sodium acetate (pH 4.8) and stored in aliquots at −80° C. Thawed PDEA-receptor was injected over carboxymethyl-dextran (B1 or CM5, BIAcore, Inc.) biosensor chips preactivated with N-ethyl-N'-(3-dimethylaminopropyl)-carbodiimide hydrochloride (EDC) and N-hydroxysuccinimide (NHS), cystamine, and DTT. Following coupling, reactive groups on the chip were quenched with PDEA and ethanolamine. Serial dilutions of peptide in running buffer (phosphate-buffered saline containing 0.05% Tween-20, 0.01% sodium azide) were injected over the immobilized receptor, and the net amount of peptide bound at steady-state was measured as the net change in response (RU) at a point just prior to termination of peptide injection, compared to a running-buffer baseline. Binding affinities (Table 10) are reported as the midpoint ($EC50$) of a 4-parameter fit to the peptide saturation curve. In the case of IGE134 (SEQ ID NOS:), the value shown indicates the Kd calculated from the rate constants, $kon$ and $koff$. The results of binding assays (Table 8) correlate well with those of inhibition assays (Table 7).
Turning to B1, the EC50 turned out to be 180 nM. B2: it took 890 nM to reach a half-maximal effect (EC50). B3: the response was half-maximal at 340 nM (EC50). Molecule ALCPAVCYV-NH2 (also: antiparallel disulfide-linked homodimer, interchain C3-C7' and C7-C3', also called IGE037 dimer) [IGE089] returned an EC50 of 64000 nM. On the same count and under the same terms, the same measure for B4: 1100 nM.

As for B5, the concentration giving a half-maximal response (EC50) was determined as 260 nM. On to B6, for which the EC50 was 13000 nM.

As to B7, the response was half-maximal at 150 nM (EC50). The same measure, in the same setting: with B8 the figure was 380 nM. The same measure, in the same setting: the same measure for B9: 240 nM; for B10: 1400 nM.
